The record followed here is patent US20240043859A1, “HERBICIDE-RESISTANT PROTEIN, AND GENE AND USE THEREOF” (QINGDAO KINGAGROOT CHEMICAL COMPOUND CO., LTD., priority 2020, published 2024).

“Also recorded” adds a separate entry of the source.

Data set [1] is classed as cell-based, Escherichia coli. The protocol:
(§1) To transform the plasmids to be tested, an AAD12-expressing plasmid and a blank control plasmid pET15b were respectively transformed into the protein expression E. coli BL21(DE3) strains. A monoclone was selected and inoculated in a 10 ml centrifuge tube with 3 ml LB medium, and cultivated at 37° C., 200 rpm for 6-8 hours. […] The temperature was switched to 28° C. and the cultivation continued overnight. In the next morning, 200 μL of each bacteria solution was taken and centrifuged to precipitate thallus, 180 μL of the supernatant was taken and added in a 96-well plate, and 20 μL of borate buffer of pH 10 was added. Then the mixture was added with 2 μL of 8% potassium ferricyanide and mixed well, followed by adding 2 μL of 2% 4-aminoantipyrine, and placed at room temperature for 5 min to observe the color and detect the A510 value. […]

The nature of data set [2]: Chromogenic reaction of degrading herbicides in bacteria: triclopyr. The format is cell-based, Escherichia coli. Conditions: recombinant E. coli expressing the gene. The protocol:
as §1

A short description of data set [3]: Chromogenic reaction of degrading herbicides in bacteria: 2,4-D. It is filed as cell-based, Escherichia coli. As to conditions: recombinant E. coli expressing the gene, 2,4-D added to the medium, red = phenols. The method, boiled down: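 E. coli BL21(DE3) carrying AAD12 or empty pET15b was induced with 0.1 mM IPTG plus 2 mM α-ketoglutarate and given 0.5 mM 2,4-D, then grown overnight at 28 °C. Supernatant was treated with pH 10 borate, potassium ferricyanide and 4-aminoantipyrine for 5 min at room temperature; red colour read at A510.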

Another data set has as its system Arabidopsis thaliana. Put plainly: Herbicide resistance of transgenic Arabidopsis thaliana seedlings on plate medium (root growth). It is filed as in vivo. Conditions: Arabidopsis overexpressing the gene. How it is done: Expression in Arabidopsis thaliana was regulated by its AtUbi10 Arabidopsis thaliana ubiquitin promoter and the MAS (mannopine synthase) terminator. Hygromycin resistance gene (HygR=hpt) served as the selection marker.
Preparation of Agrobacterium infection solution: An activated Agrobacterium (GV3101) monoclone was picked and inoculated in 30 ml YEP liquid medium [yeast powder 10 g/L, tryptone 10 g/L, NaCl 5 g/L, 25 mg/L Rifampicin and 50 mg/L Kanamycin], shaking-cultured at 200 rmp/min, 28° C. overnight until the OD600 was about 1.0-1.5, then centrifuged at 6000 rmp/min for 10 min to collect the bacteria, and the supernatant was discarded. Arabidopsis thaliana infection solution (sucrose 50 g/L, Silwet L-77 300 μL/L, no need to adjust pH) was used to resuspend the cells to OD600=0.8 for later use.
Genetic transformation of Arabidopsis thaliana by flower dipping: Before transformation of Arabidopsis thaliana plants, attentions were paid to whether the plants were growing well, the inflorescences were abundant, and no stress response occurred. The first transformation was performed when plants were about 20 cm high. Plants could be properly watered if the soil was dry. The grown siliques were cut off with scissors the day before transformation. The inflorescences of the plants to be transformed were soaked in the above-mentioned Agrobacterium solution for 30 seconds to 1 minute, which was stirred gently during the period. And a layer of liquid film should appear on the infiltrated plant. The transformed plants were cultured in a dark environment for 24 hours, and then taken out and grown in a normal light environment. A second transformation could be performed in the same way a week later.
Seeds were treated with disinfectant for 5 min, washed with sterile water for 5 times and then one part was spread on MS transgenic screening medium (containing 30 μg/mL hygromycin, 100 μg/mL carbenicillin) to screen transgenic seedlings, and the other part was spread on MS medicated medium [containing 250 μg/mL Cefotaxime sodium and 0.3 μM 2,4-D] to screen herbicide-resistant seedlings at mean time. The petri dish spread with seeds was placed at 4° C. for vernalization for 3 days, and taken out to a illumination incubator for cultivation (temperature of 22° C., 16 hours of light, 8 hours of darkness, light intensity of 100-150 μmol/m^2/s, humidity of 75%). After one week, it was observed that the roots of the wild-type control seedlings were not elongated and their growth was inhibited, while the transgenic seedlings had normal root growth, showing drug resistance. The transgenic positive seedlings and herbicide-resistant seedlings were photographed and transplanted into small pots filled with soil for cultivation.
The transgenic lines with the nine vectors, pQY2309, pQY2310, pQY2311, pQY2312, pQY2313, pQY2314, pQY2315, pQY2316 and pQY2317, overexpressing AAD gene in the T2 generation were further tested on plate medium for their resistance to 2,4-D, 2,4-DB sodium and MCPA herbicide. Two events were tested for each transformant.

B1: QYD73: AAD-like enzyme, SEQ ID NO. 145 (protein)
chain: MARTFDVQPLDATFGAVISGVKLAALDDETWRELYATWLQYALLVFPGQHLSRDQQIAFARRFGPLEFEIIALSNVKSDGTIRSEVENDDVIKVLKGNMGWHADSTYMPVQAKGAVFTAEVVPSVGGQTGWADMRAAYDALDGATRQKVEQLSAYHSLHYSQSKLGHQHKPGSAYSGYGFHDGPVPLRPLVKTHPETGRKSLLIGRHAHNIPGMDKDESARFLEDLVASACQPPRIYHHTWAAGDAVVWDNRCLLHQATPWDMTQPRVMWHSRIAGDPLSEAALG
modifications: Synthetic polypeptide, QYD73, D73
B1: in data set [1], the “Chromogenic reaction of degrading herbicides in bacteria: MCPA” value (“Chromogenic reaction … MCPA” below) was “Yes”. Besides, the “Chromogenic reaction of degrading herbicides in bacteria: Triclopyr” value (“Chromogenic reaction … Triclopyr” for short) in data set [2] is recorded as “Yes”; in data set [2] (listed as D73) it was “slight degradation”. The figures for the “Chromogenic reaction of degrading herbicides in bacteria: 2,4-D” value (shortened to “Chromogenic reaction … 2,4-D”) in data set [3] and in data set [3] (listed as D73) were “Yes” and “could degrade 2,4-D; also recorded: capable of degrading 2,4-D”, respectively.

B2: QYD34: AAD-like enzyme, SEQ ID NO. 67 (protein)
chain: MSMQVIPLDATFGATVTGLKLSELDEAVFAEIYDHWLRYSLLVFPGQNLDNEQQVTFAKRFGALEIDLVELSNVKDDGSLRTAPDDDRIKILKGNMGWHHDSTYMPVQAKGAVFRADTVPSHGGETGWADMCAAYDALGDAMRNRIEGLSAHHSLTYSQGKAGFKHKDKDSEYNGYGLDQDGAPLRPLVKTHAETGRKTLTIGRHAHAVPGLSQADSEALLTELVDFACQPPRIYHHGWQPGDVVVWDNRCLMHQACPWDMAERRVMFHSRLAGDPEHEFAAPN
modifications: Synthetic polypeptide, QYD34, D34
As to B2, in the data set with Arabidopsis thaliana, the “Resistance of transgenic Arabidopsis thaliana: 2,4-D” value was “Yes”. Besides, in data set [1], the “Chromogenic reaction … MCPA” value is on record as “NO”. Further, the “Chromogenic reaction … 2,4-D” value in data set [3] is “Yes”; in data set [3] (listed as D34) it was “red reactions”.

B3: QYD76: AAD-like enzyme, SEQ ID NO. 151 (protein)
chain: MARMFDIAPLDATFGAVVTGVKVTRIDDATWRDLHAAWLEYALLIFPGQFLSRAEQIAFAKRFGPLEFEMAPISNVKADGTIRIEADNDDVVKVLKGNMGWHADSTYMPVQAKGAVFSAEVVPGEGGRTGWADMRAAYDALDAARRVRVESLTAYHSLYYSQAKLGHQPKRGSDYSGYGFHDGPVPRRPLVKVHPETGRKSLLIGRHAHNIPGMDVAESTQFLESLVDFACQPPRIYHHQWTAGDAVVWDNRCLLHRATPWDMTKPRVMWHSRIAGDPVSEASLG
modifications: Synthetic polypeptide, QYD76, D76
On to B3, for which, in data set [1], the “Chromogenic reaction … MCPA” value is “Yes”. In addition, the “Chromogenic reaction … Triclopyr” value in data set [2] was “Yes”; in data set [2] (listed as D76), “slight degradation”. Also, the “Chromogenic reaction … 2,4-D” value is listed as “Yes” in data set [3] and “could degrade 2,4-D; also recorded: capable of degrading 2,4-D” in data set [3] (listed as D76).

B4: QYD74: AAD-like enzyme, SEQ ID NO. 147 (protein)
chain: MARAFDIEPLDATFGAIITGVKLAALDDAVWRDLYAAWLEYALLIFPSQNLGRDEQIAFAKRFGALEFELAPISNVNSDGTLITDPDNDILKVLKGNMGWHSDSTYMPIQAKGAVFSARVVPKSGGSTGWADMRAAYDALDDNLKRKVERLAAHHSLRYSQAKLGHFPKKHSAYSGYGFHDGPEPLRPLVKTHPETGRKSLLIGRHAHNIPGMSAEESERFLQELVDFACRPPRVYHHEWTAGDVAVWDNRCLLHQATPWDMSEPRVMWHSRIAGDPTTESALA
modifications: Synthetic polypeptide, QYD74, D74
As for B4, the “Chromogenic reaction … MCPA” value in data set [1] was “Yes”. Also, the “Chromogenic reaction … Triclopyr” value was “Yes” in data set [2] and “slight degradation” in data set [2] (listed as D74). Further, the “Chromogenic reaction … 2,4-D” value in data set [3] was “Yes”; in data set [3] (listed as D74) it was “could degrade 2,4-D; also recorded: capable of degrading 2,4-D”.

B5: QYD72: AAD-like enzyme, SEQ ID NO. 143 (protein)
chain: MAADAPFVVKPLPASFGAVVTGLALADLDEAAFAALYRTWLDYALLIFPGQHLDRDQQIAFARRFGPLEFDIAPISNVRSDGSVRPDDDADDVVKVLKGNMGWHCDSTYMPVQAKGAVFTAHVVPEDGGETDWADMRAAYDALDPAMRRRIEGLSAYHSLRHSQGKLGHVHKPGSAYSGYGMTVEAPPLRPLVKVHPETSRKTLMVGRHAYGIPGFEDAESERLLDELADFACRPPRTWRHSWTPGDAVIWDNRALMHRACPWDMTRPRVMYHSRLAGDPVAEFAAPA
modifications: Synthetic polypeptide, QYD72, D72
Take B5: the “Chromogenic reaction … MCPA” value in data set [1] is “Yes”. Besides, the “Chromogenic reaction … Triclopyr” value in data set [2] is given as “Yes”; in data set [2] (listed as D72) it was “slight degradation”. Further, the “Chromogenic reaction … 2,4-D” value in data set [3] is given as “Yes”; in data set [3] (listed as D72) it was “could degrade 2,4-D; also recorded: capable of degrading 2,4-D”.

B6: QYD50: AAD-like enzyme, SEQ ID NO. 99 (protein)
chain: MEEPDMARTLGIEPLAGTTFGAVVKGVKVTALDDATWRELHAAWLQYALLIFPDQHLKRAEQIAFARRFGPLEFEMAAISNVKADGSLRIEADNDDVMKILKGNMGWHCDSTYMPVQAKGAVFSAEVVPSIGGRTGFADMRAAWDALDDALKARIETLSAYHSLHHSQSKLGHQTNKRDGEYSGYGLHDGPVPLRQLVKVHPETGRKSLLIGRHAHNIPGMDKADSERLLQELVDFACQPPRIYHHDWAAGDAVVWDNRCLLHQATPWDMTQPRVMWHSRIAGDPRSEAALGGSAVSAAASG
modifications: Synthetic polypeptide, QYD50, D50
With B6, in the data set on Arabidopsis thaliana, the “Resistance of transgenic Arabidopsis thaliana: 2,4-D” value was “Yes” and the “Resistance of transgenic Arabidopsis thaliana: MCPA” value was “Yes”. Also, the “Chromogenic reaction … MCPA” value in data set [1] is reported as “Yes”. For the same molecule, the “Chromogenic reaction … 2,4-D” value in data set [3] is listed as “Yes”. The “Chromogenic reaction … 2,4-D” value in data set [3] (listed as D50) is listed as “could degrade 2,4-D; also recorded: capable of degrading 2,4-D”.
